From publication PMC8617172, “Architecture of the outer-membrane core complex from a conjugative type IV secretion system” (Nature Communications, 2021) come the findings set out here.

What all share (assay): cryo-EM structure; OMCC of TraB-strep, TraK and TraV co-expressed in E. coli, purified from membranes in 50 mM Tris-HCl pH 7.5, 300 mM NaCl, 0.23% w/v LDAO; 0.1 mg/ml on Lacey grids with ultrathin carbon; single-particle maps with C17 (inner ring, 3.3 Å), C13 (outer ring, 3.4 Å) and C1 (5.7 Å) symmetry
Series [1] addresses TraB (pED208 F-T4SS outer-membrane core complex protein, VirB10 homologue), strep-tagged (E. coli (plasmid pED208)).
In series [2] the target is TraV (pED208 F-T4SS outer-membrane core complex lipoprotein, VirB7 homologue) (E. coli (plasmid pED208)) (UniProt P41069).
Series [3] deals with the molecule itself.

One may read the stoichiometry N as the number of molecules, sites or subunits per partner or assembly. In the case of “TraB (pED208 F-T4SS outer-membrane core complex protein, VirB10 homologue), strep-tagged (natural protein)”, the stoichiometry N in series [1] turned out to be 17 chains.

“TraK (pED208 F-T4SS outer-membrane core complex protein, VirB9 homologue) (natural protein)” had a stoichiometry N (TraK per TraB) in series [1] of 1.53.

In turn, “TraV (pED208 F-T4SS outer-membrane core complex lipoprotein, VirB7 homologue) (from UniProt P41069 19-171) (natural protein)” returned a stoichiometry N (TraV per TraB) in series [1] of 1.53. In addition, the stoichiometry N in series [2] was 26 chains.

B1: TraK (pED208 F-T4SS outer-membrane core complex protein, VirB9 homologue) (natural protein)
chain: AQSPATISLPQGGQFRLSISNTDPNMIFIPGDKVTAITAPGGMLADKRLTTAGGVLFTSVATRTFTIFVETALGQTFSVVATPVKGEGRVYRLMSAEPPSRPETRKWETAQAYEKLLISLNRAVLTGDIPDGYGEVKPLSDGIRLPGGFSVTPLKAWAGDQLRADRYELRNANTWGVALREQDFWKPGVRAVMFDNNAQTLMGGGRMTVTVIRGNG
notes: TraK1 and TraK2 are two conformations of the same chain; 26 copies in the whole OMCC; also called TraK (VirB9); TraK1
For B1, the “stoichiometry N” value in series [3] came out at 26 chains.
